Drawing on a protein production outcome set (Wang et al. 2014), this text covers protein production for 21 sequences.

The series in a line: label from the status in PepcDB records.
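Note: failed if final PepcDB status was selected cloned or expressed and not failed if soluble or beyond.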

With “MDYKPLAKEILKNIGTKSNVRSITHCVTRVRFVLNDESQANDEVIRDLDGVLDVVKQGGQYQVVIGPSVGSVYDAIIDVANFSDNVINSSEIAAPTSDETEEKGFLNKALGLISSIFIPVLGLLSGAGMIKAILSLCTVTGLLTAKSGTYIILSALGDTLFYFFPIVVGWSAARKFGLKEIYGVTLGAFLVYPTLATAASSTAVTTIFKGTIFALKYKMTFLGIPVALQSYSSTVIPIIIIVWFASYVYKYCDKVIPDVLKMVFVPFFTLLIAGVVSLIVIGPIAMILQNILSDTVLWLVGLNKGIAGFLLGFFWSILVMFGLHWAVIPFFAIDVAHYGYDVINPLIFAGGLAVLGSAIGVAIRARDERVKSMSVAAAISAFFGINEPALYGVLIPRKKVLLTSFLAAGIGGAIAGFSGSKLYSFGASGILGLPCFINPKGIDAGFIGLCISGIVAFVFALIAALIAGAKKDAKSKPAERHLAEHSDVYAPVAGESFDLTTVHDDVFSKLVLGDGIAVKPSDGKVYAPVTGIVRVAYPTGHAVGLASDDGEEVLIHIGIDTVNLEGKHFKMHVAQGMRVKKGDLLVDFDEAAISAAGYDTTVMMVVTKSERLKSVMPTQFGPVTKDTKVLDVELQSNSVESVTAVATND”, the protein production result is recorded as “failed”.
With “MDYKVSVLIVCYNQEKYIKKALESVLSQKVNFNYEIVVCDDCSSDRTFNILQEYKSKLGSKLNLIRNYKNLGITLNYKNGFKNCKGEYIAVLEGDDYWIQKSKLKRQVSFLESNRDCSLVFNKIVLDYGDEKINNLIYPFNDIRKKFSARELVRSNFIQNFSCCMYRKSSIRKLRESIYDMVVYDWMFNMAVAQFGLIGYIPNYMTSHRILKSGLWSGKSKMENLQMISKCIDQYDSFFKYKYRKEFSQNKQEVLQALRRLVMVNENGLEHHHHHH” the entry was “not failed”.
Under “MDYMERPKLGLIVREPYASLIVDGRKVWEIRRRKTRHRGPLGIVSGGRLIGQADLVGVEGPFSVEELLAHQEKHLAEEAFLRAYAKDEPLYAWVLENAFRYEKPLHVPRRPGRVMFVDLSEVRW” stands “not failed”; under “MDYNQTVLSHLQKFWKHHDIKGFTWTLGRIVEELPDFQVFQVIPNHEDEPWVYVSSGIGQFLGQEFFIISPFETPEHIETLAMLASASMHYPDQFQLGKTVNIGRPWVEQSSFRHFLISLPYPYGQELEYMDNVRFFWLLPITQTERLFLNTHSVEELETKFDEAGIDYLDINRASTVWQAG”, “not failed”; under “MDYREVDSTSEFVCRLEHGGDWRAQIEAFADEQGIDAGFFYGLGAVQDAELMFYDQDRTEYDSLTFDEPLEVAACMGNISHFDGERFAHTHAVLSRPDGEAVAGHLNAGTVWAGELYVRGFDTELQREHDEPTDLDLWNILEHHHHHH”, “failed”.
Under “MDYSNTYGAYGGGGFLPESPARTGGNASTRFGVGSGSSLRDQRRSLLPVRVADLVHAVHDPVTNTFVLRDENEHQSITISEGSIVKVVAYVEELREQPLDLLWLLDDRSGEMIWARMASTSSSSLAALEQSGILVRVFGQLLEVDGRRVLNVRAIRKADGEVELRYHENLCQLSKLQLIRGYPTAGNALAGASSSPASPKAGPSKAVHRSSLGSGAPKEMAQQAPGLEIPAAFPPEHFKVLKCIREETARNRDAMLTDIAQRIALSTTKVRGICDALQNEGHIYCTLDDDTFRASSS” stands “not failed”; under “MEAARSMTFSECAALYIKAHRSSWKNTKHADQWTNTIKTYCGPVIGPLSVQDVDTKLIMKVLDPIWEQKPETASRLRGRIESVLDWATVRGYREGDNLEHHHHHH”, “failed”; under “MEAAVNAAEAYSHIRAVMGMVVGLSLARLLTGLAGFVQHPKKERIYLLHIGWVAFLFLMLVHFWWWEHRLSATGHVLDFGAFLFLILFCSLFYFLCVLLFPTDMKEYKGYEDYFFSRKSWFFAFLAALFVTDVGDTLLKGHDYLASLGPEYLIRTAIYVVLFTAAAFIDNRRFHRFLVIFALVYQIAWIFRTYDLLA”, “failed”.
As for “MEAEEIIGLLKKGDLEKAKDALSKEIDNLSDEELKEILEVAESVAKEKEDIELLKLVVYYYAEFFGIDKLEEFEGIAKEKGYEGLMHLADLYSLLGYPEKALDIYRELLKTDLIKEKEHIGEIYYGIATIHDELQEYDKALEAINEAVKAFKESNNVEKLHQAEVYRAYITFENGDRDKAKEILAGLLPHVTNREIKAQIHLVFKEIFEDEENYEAAIQESLYSLIEGIDTEVFDLAFDGLIDLIWELILEDKFEEIYKSMPMFKVAIPSLKDFFEGVRRIAMYREGKIGREEVSEILMKVKDERLVSILEFLGEAEV”, the protein production result is given as “failed”.
“MEAFGGFVMDEQAIQVENVFLEFLKSFRLDANKPELYYEAEIEAIRGGESTMMYIDFSHVMGFNDALQKAIADEYLRFEPYLRNACKRFVIEMNPSFISDDTPNKDINVSFYNLPFTKRLRELTTAEIGKLVSVTGVVTRTSEVRPELLYGTFKCLDCGSVIKNVEQQFKYTQPTICVSPTCLNRARWALLRQESKFADWQRVRMQETSKEIPAGSLPRSLDVILRHEIVEQARAGDTVIFTGTVVVIPDISALAAPGERAECRRDSSQQKSSTAGHEGVQGLKALGVRDLSYRLAFIANSVQIADGSRNTDMRNRQNDSNEDDQQQFTAEELDEIQQMRNTPDYFNKLVGSMAPTVFGHQDIKRAVLLMLLGGVHKTTHEGINLRGDINVCIVGDPSCAKSQFLKYTAGIVPRSVYTSGKSSSAAGLTATVAKEPETGEFCIEAGALMLADNGICCIDEFDKMDIKDQVAIHEAMEQQTISITKAGIQATLNARTSILAAANPVGGRYDKSKPLKYNVNLPPAILSRFDLVYVMIDDPDEVTDYHIAHHIVRVHQKHEAALSPEFTTVQLKRYIAYAKTLKPKLSPEARKLLVESYVALRRGDTTPGTRVAYRMTVRQLEALIRLSEAIARSHLEILVKPSHVLLAVRLLKTSVISVESGDIDLSEYQDANGDNMDDTDDIENPVDGEEDQQNGAAEPASATADNGAAAQKLVISEEEYDRITQALVIRLRQHEETVNKDSSELPGIRQKELIRWFIDQQNEKKKYSSQEQVKLDIKKLRAIIESLVCKEGHLIVLANEQEEAAEAEETKKKSSQRDERILAVAPNYVIE”: the protein production entry is listed as “failed”.
As for “MEAIFWLALALVAFTYAGYPLVLAVWDGAREALAAVRFVSGGDDRRGRATEGWPTVTLLFSAFDEEAWIRRKIENCLALDYPPDRLEILVGCDGCTDRTAEIAREVGGSRVKVHALSPRAGKASVLSRLVPQARGDLVVLTDANVMLERGALRALARRFREPGVGAVVGRLRLFNPTRREFEESLYWKYETAIKYYEGKHGCVLGANGGIYAIRRILFSPLPPDTIVDDFVIPVRIAARGWEVPFEPEAVAFEETTEDAGHEFGRRARIGAGNWQALARVPELLDPRTGFLCFAFVSHKLLRWSAPFLLAAAAVANGLLAAAPGAWGYRALLLAQAAFYGLALAGRHGAVGLRGPVRRLASLAHYFVAMNAALAVGLWRFLRRSQRAAWQRTERAGPSVPAA”, the protein production result was “failed”.
With “MEAITYKYYQEKYYGNILNEEDFKRYEKKARRKLSSFTFGRIDCLQNVPDEVGDCICDMAEKISLEESKENFSGIVSESTDGHSVTFEKKQSIEQMNKELYLIAVGYLNNTGLLYGGVCLCSTARNW” the entry was “failed”; with “MEAKQAAGALLTVVGVLLILYAIYSGFVNETIGSTEKFSADAAAMIVGWFAVLIGPALLFGETPAAVRKAAGR”, “failed”; with “MEALDWLVIGVFFLALIGIIVWVVRQKQNDSADYFLGGRDATWLAIGASIFASNIGSEHLIGLAGAGASSGMAMAHWEIQGWMILILGWVFVPFYSRSMVYTMPEFLERRYNPQSRTILSVISLVSYVLTKVAVTVYAGGLVFQQVFGIKELWGIDFFWIAAIGLVVLTALYTIFGGMKSVLYTSVLQTPILLLGSLIILVLGFKELGGWDEMMRVCGAVTVNDYGDTMTNLIRSNDDANFPWLGALIGSAIIGFWYWCTDQFIVQRVLSGKNEKEARRGTIFGAYLKLLPVFLFLIPGMIAFALHQKYIGAGGEGFLPMLANGTANADAAFPTLVAKLLPAGVKGLVVCGILAALMSSLASLFNSSAMLFTIDFYKRFRPETPEKKLVGIGQIATVVIVILGILWIPIMRSVGDVLYTYLQDVQSVLAPGIAAAFLLGICWKRTSAQGGMWGLIAGMIIGLTRLGAKVYYSNAGEVADSTFKYLFYDMNWLFFCGWMFLFCIIVVIVVSLATEAPTAEKIQGLVFGTATKEQKAATRASWDHWDIIHTVIILAITGAFYWYFW”, “failed”.
For “MEASRNRSLVGNNRSPEMNENDGEDVAASAAVEDVEVWDTLSNGFKRAQLYLDQNRDLIQRVNENHMSRIPDNVSRNVGLINEINGNISQVMEIYSDLSLNFAKKFDQRRRTTKDGDTTTTTTGS”, the protein production entry is on record as “failed”.
With “MECDRISTLPDHLVAKIVSYLGIKDSIKTSVLSKRWEFVWLKVVGLDLKNCDFPPNGIASQMVVNKYMEFNSGLHMQYFKVNFGGNTVCTNRFLEWIATAVDRGVQHLDAENKNPVIIKEFMPKKIYKSKTLVSLKLAIKIFLKARHFISVFIVLQGQSIVQFSSRCGTFS” the entry was “not failed”; with “MECKTMERITVNLGERSYPISIGAGLFANPALLSLSAKQKVVIVTNHTVAPLYAPAIISLLDHIGCQHALLELPDGEQYKTLETFNTVMSFLLEHNYSRDVVVIALGGGVIGDLVGFAAACYQRGVDFIQIPTTLLSQVDSSVGGKTAVNHPLGKNMIGAFYQPKAVVIDTDCLTTLPAREFAAGMAEVIKYGIIYDSAFFDWLEAQMEALYALDEQALTYAIARCCQIKAEVVAQDEKESGIRALLNLGHTFGHAIEAHMGYGNWLHGEAVSAGTVMAAKTAQLQGLIDASQFERILAILKKAHLPVRTPENMTFADFMQHMMRDKKVLAGELRLVLPTSIGTSAVVKGVPEAVIAQAIEYCRTV”, “not failed”; with “MECPFVSVVVGIRNEERYIEECIESLLRLDYPQDSYEIIIVDGMSTDRTRELVQKYPVRLLLNERKNVAAARNLGVQNSMGDFVAFTDGDCKADPLWLKTLVTEMKNAPEDVVCVGGPNLIFDTDPVFGRVVGHAQETFLGSGGSAQSKNSLKKHYVSSLPNCNAMYKKNTIIEAGYFDERFVVGQDGDLNYRINKKGYKFLYIPEAIVLHHRRGTLKSFSVRMFKYGMWMGELFKKHGELVRWYAILPSVAILFSVFSLIISPVYTTPIIVLLLMGFLYLILVFIASIQVIFKMKSKYGLYALVVIPVQHITYGMGFLYSFANSLYKSKGVSSSIVQN”, “failed”.
With “MEDGMNTFDLYYWPVPFRGQLIRGILAHCGCSWDEHDVDAIEGLMDCGAEKQPVAFMGPPVLIDRERNFAISQMPAIAIYLGERLDILPATVEGRTLSAKIVNDANDVLDELTLNGGREMWTPEKWQEFVPRLQKWIRIFADTGARNGLSAASGFMLGTEKIGVADIVTAILWTTVADRFPAIKGIIEDTSPIIWGLSRRVVATAPLAALNSKSFEEYGNAYCGGEIEKSLRKVAS” the entry was “not failed”; with “MEDIEYLDEYKDLVLPGIKSSAPTASSAGVPRQRRISSDSSNSSSIDADIFQKLFHGKYLDDELLKEGSGSKSQDRRRRPPSPSSSDESNDALEALFCGK”, “failed”.
With “MEDIIFGKRSNVFDVNPENTVFVLIAGTSEVSTVPGITSAGATPELTRLTPAIDSEIIGEGKCLSSKDPPMTPEGIPTPAIVTKAILSLTNIRYIIVNGGFYAKPKTPFIETGLKPSNNPAVKTAIEDLDAAIHAGEHIGRLLDGVFENIILAESVPGGTTTAYAVLKAIGINAKTSSSMKEDPFSIKEKIAEMSFRRKLEKSPLGAVKEYGDNMMAVSLGISSSVKRSKIIFGGGTQMATVMYLDRLINGMRDRYISTTGWVYYHRTELFSDLGLSDYLAVSAMDFSGMKHPGLRYYQYGHVREGTGMGAAFLLARLMNFEAEAIYKSVDDFYEQFI” the entry was “failed”.
